# In US20230192803A1 (published 2023):
# B1: 40A3 scFv-Fc (Fc fusion)
# scFv: EIVMTQSPATLSVSPGERATLSCRASQSVNSNLAWYQQKPGQAPRLLIYGASTRATGIPARFSGSGSGTEFTLTISSLQSEDFAVYYCQQYNNWPFTFGPGTKVDIKGGGGSGGGGSGGGGSGGGGSQVQLQQSGPGLVKPSQTLSLTCAISGDSVSRNSAVWNWIRQSPSRGLEWLGRTYYRSKWYNDYAVSVKSRITINPDTSKNQFSLQVNSVTPEDTAVYYCARGLLQNNFYYYMDVWGKGTTVTVSS
# How the values were obtained:
# Ad293 Murine STEAP3-2 = assay: flow cytometry cell binding; Ad293 murine STEAP3-2 chimera cells; affinity calculated from EC50
# Ad293 STEAP3-2 = assay: flow cytometry cell binding; Ad293 STEAP3-2 chimera cells; affinity calculated from EC50
binder,measurement,setting,value
B1,EC50,Ad293 Murine STEAP3-2,28.2 nM
same,EC50,Ad293 STEAP3-2,20.2 nM
